Measurements as given in US20220281976A1.

Columns and labels:
human CD33 (human) [1] = molecular target: human CD33 (human) (UniProt P20138); test: flow cytometry, human primary T cells
human CD33 (human) [2] = molecular target: human CD33 (human) (UniProt P20138); test: flow cytometry, human primary dendritic cells
human CD33 (human) [3] = molecular target: human CD33 (human) (UniProt P20138); test: flow cytometry, human primary monocytes
human CD33 (human) [4] = molecular target: human CD33 (human) (UniProt P20138); test: flow cytometry, human primary macrophages
human CD33 (human) [5] = molecular target: human CD33 (human) (UniProt P20138); test: cell-based or functional assay

human CD33 (human), sequence (P20138 18-364): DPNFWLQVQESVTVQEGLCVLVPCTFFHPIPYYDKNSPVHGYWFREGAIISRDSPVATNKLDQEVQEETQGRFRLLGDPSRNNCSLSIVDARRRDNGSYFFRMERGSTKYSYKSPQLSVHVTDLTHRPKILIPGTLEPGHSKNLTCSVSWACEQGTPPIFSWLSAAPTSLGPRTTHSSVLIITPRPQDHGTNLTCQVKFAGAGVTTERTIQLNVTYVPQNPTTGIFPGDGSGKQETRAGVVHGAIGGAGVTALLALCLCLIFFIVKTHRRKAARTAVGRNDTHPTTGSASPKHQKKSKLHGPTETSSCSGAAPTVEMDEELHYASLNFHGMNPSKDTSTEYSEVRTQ

- T cell MFI (human CD33 (human) [1]): 29.3
- DC MFI (human CD33 (human) [2]): 496
- Monocyte MFI (human CD33 (human) [3]): 126
- Macrophage MFI (human CD33 (human) [4]): 656
- Percent CD33 Surface Expression, DC % CD33 (human CD33 (human) [5]): 86%
- Percent CD33 Surface Expression, Monocyte % CD33 (human CD33 (human) [5]): 88%
B1: C-51 (antibody, V domains shown)
VH: QLQLQESGPGLVKPSETLSLTCTVSGGSISSSSYYWGWIRQPPGKGLEWIGSIYYSGSTYYNPSLKSRVTISVDTSKNQFSLKLSSVTAADTAVYYCARGAPHDYGGGVGWFDPWGQGTTVTVSS
VL: DIQMTQSPSSVSASVGDRVTITCRASQGISSWLAWYQQKPGKAPKLLIYAASNLQSGVPSRFSGSGSGTDFTLTISSLQPEDFATYYCQQSRVFPWTFGGGTKVEIK
